# B1: IL-12: growth factor found in TCM, added to HUVECs at published B-max concentration (protein, UniProt P29459 23-219; P29460 23-328, looked up)
# Interleukin-12 subunit alpha: RNLPVATPDPGMFPCLHHSQNLLRAVSNMLQKARQTLEFYPCTSEEIDHEDITKDKTSTVEACLPLELTKNESCLNSRETSFITNGSCLASRKTSFMMALCLSSIYEDLKMYQVEFKTMNAKLLMDPKRQIFLDQNMLAVIDELMQALNFNSETVPQKSSLEEPDFYKTKIKLCILLHAFRIRAVTIDRVMSYLNAS
# Interleukin-12 subunit beta: IWELKKDVYVVELDWYPDAPGEMVVLTCDTPEEDGITWTLDQSSEVLGSGKTLTIQVKEFGDAGQYTCHKGGEVLSHSLLLLHKKEDGIWSTDILKDQKEPKNKTFLRCEAKNYSGRFTCWWLTTISTDLTFSVKSSRGSSDPQGVTCGAATLSAERVRGDNKEYEYSVECQEDSACPAAEESLPIEVMVDAVHKLKYENYTSSFFIRDIIKPDPPKNLQLKPLKNSRQVEVSWEYPDTWSTPHSYFSLTFCVQVQGKSKREKKDRVFTDKTSATVICRKNASISVRAQDRYYSSSWSEWASVPCS
# Test system: hornerin
# Assay: Immunoblot of hornerin in HUVECs treated with growth factors
# Type: cell-based, human
# Conditions: 24 hours treatment; growth factors at published B-max concentrations, EGF at increasing concentrations
# Procedure: HUVECs were cultured in 10 cm dishes for 24 hours prior to a change to media containing VEGF (at B-max concentration), TCM, or VC. After 24 hours treatment, the cells were washed with DPBST two times and lysed with radioimmunoprecipitation assay (RIPA) buffer (Thermo Scientific). Lysate protein concentrations were measured by the bicinchoninic acid assay (Pierce, Waltham, MA, USA) and equivalent amounts of protein were loaded into precast 4-15% tris-glycine eXtended (TGX) polyacrylamide gels (Bio-Rad, Hercules, CA, USA). The proteins were resolved by electrophoresis and transferred to nitrocellulose membranes using the iBlot system (Invitrogen, Carlsbad, CA, USA). The membranes were then washed in Tris-buffered saline+1% Tween-20 (TBST), blocked for 30 minutes in TBST+2% milk solution, and incubated overnight at 4° C. with primary antibodies anti-hornerin (Abcam, Cambridge, UK, ab78909; (1:1000)) and anti-HSP90 (Cell Signaling Technology, Danvers, MA, USA, 4877; (1:1000)). The following day the membranes were washed and subsequently incubated with the secondary antibodies anti-goat HRP (R&D Systems, Minneapolis, MN, USA, HAF109; 1:5000) and anti-rabbit HRP (GE Healthcare, NA934V; 1:5000) for 45 minutes at RT. […]
# Major constituents of TCM were determined using a Human Angiogenesis Antibody Array (Affymetrix, Santa Clara, CA, USA) per manufacturer's instructions. […]
molecule,measurement,value
B1,hornerin expression in HUVECs,might stimulate hornerin expression
